The series addresses lysozyme (chicken (egg white), UniProt P00698 19-147). The series is described as follows: single-molecule FRET (aptamer displacement); H1 helper strand 1 uM, 10 mM Mg2+; detection limit 30 nM, dynamic range to ~2 uM (not a Kd); 1x TAE-Mg: 40 mM Tris, 20 mM acetic acid, 1 mM EDTA, 10 mM Mg2+, pH 7.4; 1 uM H1 in imaging solution; temperature not stated. The conditions noted are these: protein: commercial; label: 3' Cy3 on Cy3 strand; 5' Cy5 on Cy5 strand; partially double-stranded multi-strand assembly; 15 nt of aptamer strand (6 extension + 9 aptamer) paired with B1; lysozyme displaces the aptamer strand.

Sequence of lysozyme (P00698 19-147): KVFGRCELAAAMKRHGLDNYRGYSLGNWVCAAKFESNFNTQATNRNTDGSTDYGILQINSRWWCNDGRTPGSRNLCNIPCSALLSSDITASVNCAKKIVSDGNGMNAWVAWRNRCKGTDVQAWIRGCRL

B1: lysozyme aptasensor (aptamer annealed to B1, Cy5, top and Cy3 strands) (mixed)
DNA 1: ACTGTCATCAGGGCTAAAGAGTGCAGAGTTACTTAG
DNA 2: AGCCCTGATGACAGTAATATAATTCTATA
DNA 3: TATAGAATTATATTATATTACGAGTAGTGAGTTCCA
DNA 4: ATCAGAAGCTCTC
DNA 5: TGGAACTCACTACTCGATTAGTGTATGACCTCTATATGAGAGCTTCTGAT
modifications: 5' biotin-TEG on Cy3 strand
In the case of B1, the binding result is given as “binds”.

Source of the values: paper PMC7038949, “FRET-Based Aptasensor for the Selective and Sensitive Detection of Lysozyme”.
